One block for each binder: values may come before it.
Legend:
[1] = molecular target: M44-modified Y NTAA target peptides (M44-Y-P2-peptide); test: Gini coefficient of P1 selectivity from multiplex encoding heatmap
[2] = molecular target: M44-modified Y NTAA target peptides (M44-Y-P2-peptide); test: Gini coefficient of P2 tolerance from multiplex encoding heatmap
[3] = molecular target: M48-modified L NTAA target peptides (M48-L-P2-peptide); test: Gini coefficient of P1 selectivity from multiplex encoding heatmap
[4] = molecular target: M48-modified L NTAA target peptides (M48-L-P2-peptide); test: Gini coefficient of P2 tolerance from multiplex encoding heatmap
[5] = molecular target: M90-modified L NTAA target peptide; test: affinity comparison between P1 residues (method not specified; BLI / encoding assay)
[6] = molecular target: M90-modified F NTAA target peptide; test: as above
[7] = molecular target: M12-modified L NTAA target peptides (M12-L-P2-peptide); test: multiplex encoding assay on 288 immobilized peptides (FIG. 10); holds for at least 11 P2 residues
[8] = molecular target: M12-modified F NTAA target peptides (M12-F-P2-peptide); test: multiplex encoding assay on 288 immobilized peptides (FIG. 9); holds for at least 14 P2 residues
[9] = molecular target: M2014-modified Y NTAA target peptides (M2014-Y-P2-peptide); test: Gini coefficient of P1 selectivity from multiplex encoding heatmap
[10] = molecular target: M2014-modified Y NTAA target peptides (M2014-Y-P2-peptide); test: Gini coefficient of P2 tolerance from multiplex encoding heatmap

P1 score [1]: 0.301
B1: SEQ ID NO 45 (designed binder, not shown: small tags and cut ends; large carriers)
chain: TVPDRSEIAGKWYVVALASNTEFLLREKDSLKSAMARISFLGEDELKVSYARPLPNGCLKLEATMKKTSDDGEVYLSRSAKLKVEVLDTDYKSYAVIYATPVKDGRTRHYMALYSRSPEVSPAATAIFRKLAGERNYTDEMVAMLPRQEECTVDEV
P2 score [2]: 0.426

P1 score [3]: 0.0571
B2: SEQ ID NO 27 (designed binder, not shown: small tags and cut ends; large carriers)
chain: QVSVQPNFQQDKFLGRWFIAGQASNSSWQREKCAALSRAKVVVAPATDGGLNLTMTLLRKNQCETRTTLLQPAGSLGSYSYRSPHLGSTVSWSVVETDYDQYALMYVQGSKGPGEDQRFAILWSRTQTPRAELKEKFTAFSKAQGFTEDTIVFLPQTDKCMTEQ
P2 score [4]: 0.312

fold affinity over an otherwise identical peptide with a different P1 [5]: > 2 fold
B3: SEQ ID NO 53 (designed binder, not shown: small tags and cut ends; large carriers)
chain: QIPLCANLVPVPITNATLDRITGKWFLIASASRNEEYNKSVQGSQNTAFYFTPNKTEDTIFLRRYQTRQNQCFYNSSYLNVQRENGTVSSYFGGRENVIHLLFLRDTKTLMLGRYLDDEKNWGLEFYADKPETTKEQLGEFYEALDCLRIPRSDVMYTDWKKDKCEPLEKQHEKERKQEEGES

fold affinity over an otherwise identical peptide with a different P1 [6]: > 2 fold
B4: SEQ ID NO 51 (designed binder, not shown: small tags and cut ends; large carriers)
chain: QIPLCANLVPVPITNATLDRITGKWFHIASAIRNEEYNKSVQRQQSTHFYITPNKTEDTIFTRVYQTRQNQCFYNSSYLNVQRENGTVSLYSGGREVVGHLLFLRDTKTLMWGTYLDDEKNWGLEFWADKPETTKEQLGEFYEALDCLRIPRSDVMYTDWKKDKCEPLEKQHEKERKQEEGES

encoding efficiency (fraction of recording tags encoded) [7]: > 0.15
B5: engineered M12-L binder (SEQ ID NO: 49) (designed binder, not shown: small tags and cut ends; large carriers)
chain: QVSVQPNFQQDKFLGRWFVAGIASNSSWSREKIAALSFAKGVVAPATDGGLNYTETVLRKNQCETQTVLLQPAGSLGSYSARSPHQGSTRSFSVVETDYDQYALLYAQGSKGPGEDDRVAGLWSRTQTPRAELKEKFTAFSKAQGFTEDTIVFLPQTDKCMTEQ

encoding efficiency (fraction of recording tags encoded) [8]: > 0.15
B6: engineered M12-F binder (SEQ ID NO: 50) (designed binder, not shown: small tags and cut ends; large carriers)
chain: GPVPTPPDNIQVQENFNISRIYGKWYPLAMGSTSPYLKKSMDIMTPSYLVLGEGATEAEISWTETFWRKGVCEEGSGALEKTDTDGKFLYHKSKWNITEERYVVHTNYDEYAIVLVKKFSRHHGPTIEAVLMGRAPQLRETLLQDFRVVAQGVGIPEDSIFTMADRGECVPGEQ

P1 score [9]: 0.238
B7: SEQ ID NO 48 (designed binder, not shown: small tags and cut ends; large carriers)
chain: QDSTQNLIPAPSLLTVPLQPDFRSDQFRGRWYVVGLAGNAVQKKTEGSFTMLSLIYELQENNSYNVTAIFVRDQDQGCRYVIDTLVPSSRAGQFTPGSMGRFPQVQSYNVQVATTDYNQFAMVFVRVTSENKQYFEITLLGRTKELSPELKERFTRFAKSLGLKDDNIIFSVPTDQCIDNSAWSHPQFEK
P2 score [10]: 0.255

— patent US20230220589A1
